Assay results from patent EP4644412A1.

Molecular target: TPO receptor (TPOR)
Experiment: cell-based or functional assay

- EC50 of relative cell proliferation of BaF3/MPL cells (Cell Titer-Glo, 48 h): 1.7 ng/mL
Substance: Human TPO synthetic protein (rhTPO) (from UniProt P40225 22-353) (ligand)
